This test has as its target actin (coated on the BLI biosensor). The test is described as follows: BLI; Octet RED, 25°C; APS biosensor coated with actin; rWLP (1 mM) in PBS pH 7.4 with 0.05% Tween 20 and 0.1% BSA; 300 s association, 120 s dissociation.

A word on the Kd: it is the constant that tells how readily two partners part at equilibrium. As to “recombinant whirlin-like protein (as used in biolayer interferometry) (natural protein)”, the Kd amounted to 193 nM.

These data come from paper PMC7141649.
